Test results as given in the supplement of paper PMC10266784.

B1: library; numbered along this chain (parent)
chain: MAAAAAAAAEQQSSNGPVKKSMREKAVERRSVNKEHNSNFKAGYIPIDEDRLHKTGLRGRKGNLAICVIILLFILAVINLIITLVIWAVIRIGPNGCDSMEFHESGLLRFKQVSDMGVIHPLYKSTVGGRRNENLVITGNNQPIVFQQGTTKLSVENNKTSITSDIGMQFFDPRTQNILFSTDYETHEFHLPSGVKSLNVQKASTERITSNATSDLNIKVDGRAIVRGNEGVFIMGKTIEFHMGGNMELKAENSIILNGSVMVSTTRLPSSSSGDQLGSGDWVRYKLCMCADGTLFKVQVTSQNMGCQISDNPCGNTH

Variants of: B1
Assay: SGCB cell-surface expression functional score (HA stain, bin4 vs bin1, normalised to synonymous) (log10 ratio); higher = more cell-surface SGCB (functional)
Method in brief: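 Sorting and sequencing yield the functional score, defined as the log ratio of a variant's highest-bin frequency to its lowest-bin frequency, with the median taken over codons and replicate transductions. The libraries, codon-saturation sets of HA-tagged, YFP-fused human beta-sarcoglycan, went into HEK293 cells stably carrying alpha-, gamma- and delta-sarcoglycan by duplicate lentiviral transduction at MOI <0.1. Cells were stained on ice with Alexa Fluor 647 anti-HA, fixed and split into four 5% intensity bins, and synonymous variants were scaled per section to mean 0, SD 0.5.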

Variant	SGCB cell-surface expression functional score (log10)
MAAAAAAAAEQQSSNGPVKKSMREKAVERRSVNKEHNSNFKAGYIPIDEDRLHKTGLRGRKGNLAICVIILLFILAVINLIITLVIWAVIRIGPNGCDSMEFHESGLLRFKQVSDMGVIHPLYKSTVGGRRNENLVITGNNQPIVFQQGTTKLSVENNKTSITSDIGMQFFDPRTQNILFSTDYETHEFHLPSGVKSLNVQKASTERITSNATSDLNIKVDGRAIVRGNEGVFIMGKTIEFHMGGNMELKAENSIILNGSVMVSTTRLPSSSSGDQLGSGDIVRYKLCMCADGTLFKVQVTSQNMGCQISDNPCGNTH [W282I]	0.19
MAAAAAAAAEQQSSNGPVKKSMREKAVERRSVNKEHNSNFKAGYIPIDEDRLHKTGLRGRKGNLAICVIILLFILAVINLIITLVIWAVIRIGPNGCDSMEFHESGLLRFKQVSDMGVIHPLYKSTVGGRRNENLVITGNNQPIVFQQGTTKLSVENNKTSITSDIGMQFFDPRTQNILFSTDYETHEFHLPSGVKSLNVQKASTERITSNATSDLNIKVDGRAIVRGNEGVFIMGKTIEFHMGGNMELKAENSIILNGSVMVSTTRLPSSSSGDQLGSGDDVRYKLCMCADGTLFKVQVTSQNMGCQISDNPCGNTH [W282D]	-0.17
MAAAAAAAAEQQSSNGPVKKSMREKAVERRSVNKEHNSNFKAGYIPIDEDRLHKTGLRGRKGNLAICVIILLFILAVINLIITLVIWAVIRIGPNGCDSMEFHESGLLRFKQVSDMGVIHPLYKSTVGGRRNENLVITGNNQPIVFQQGTTKLSVENNKTSITSDIGMQFFDPRTQNILFSTDYETHEFHLPSGVKSLNVQKASTERITSNATSDLNIKVDGRAIVRGNEGVFIMGKTIEFHMGGNMELKAENSIILNGSVMVSTTRLPSSSSGDQLGSGDAVRYKLCMCADGTLFKVQVTSQNMGCQISDNPCGNTH [W282A]	0.11
MAAAAAAAAEQQSSNGPVKKSMREKAVERRSVNKEHNSNFKAGYIPIDEDRLHKTGLRGRKGNLAICVIILLFILAVINLIITLVIWAVIRIGPNGCDSMEFHESGLLRFKQVSDMGVIHPLYKSTVGGRRNENLVITGNNQPIVFQQGTTKLSVENNKTSITSDIGMQFFDPRTQNILFSTDYETHEFHLPSGVKSLNVQKASTERITSNATSDLNIKVDGRAIVRGNEGVFIMGKTIEFHMGGNMELKAENSIILNGSVMVSTTRLPSSSSGDQLGSGDPVRYKLCMCADGTLFKVQVTSQNMGCQISDNPCGNTH [W282P]	0.15
MAAAAAAAAEQQSSNGPVKKSMREKAVERRSVNKEHNSNFKAGYIPIDEDRLHKTGLRGRKGNLAICVIILLFILAVINLIITLVIWAVIRIGPNGCDSMEFHESGLLRFKQVSDMGVIHPLYKSTVGGRRNENLVITGNNQPIVFQQGTTKLSVENNKTSITSDIGMQFFDPRTQNILFSTDYETHEFHLPSGVKSLNVQKASTERITSNATSDLNIKVDGRAIVRGNEGVFIMGKTIEFHMGGNMELKAENSIILNGSVMVSTTRLPSSSSGDQLGSGDFVRYKLCMCADGTLFKVQVTSQNMGCQISDNPCGNTH [W282F]	0.36
MAAAAAAAAEQQSSNGPVKKSMREKAVERRSVNKEHNSNFKAGYIPIDEDRLHKTGLRGRKGNLAICVIILLFILAVINLIITLVIWAVIRIGPNGCDSMEFHESGLLRFKQVSDMGVIHPLYKSTVGGRRNENLVITGNNQPIVFQQGTTKLSVENNKTSITSDIGMQFFDPRTQNILFSTDYETHEFHLPSGVKSLNVQKASTERITSNATSDLNIKVDGRAIVRGNEGVFIMGKTIEFHMGGNMELKAENSIILNGSVMVSTTRLPSSSSGDQLGSGDHVRYKLCMCADGTLFKVQVTSQNMGCQISDNPCGNTH [W282H]	0.22
MAAAAAAAAEQQSSNGPVKKSMREKAVERRSVNKEHNSNFKAGYIPIDEDRLHKTGLRGRKGNLAICVIILLFILAVINLIITLVIWAVIRIGPNGCDSMEFHESGLLRFKQVSDMGVIHPLYKSTVGGRRNENLVITGNNQPIVFQQGTTKLSVENNKTSITSDIGMQFFDPRTQNILFSTDYETHEFHLPSGVKSLNVQKASTERITSNATSDLNIKVDGRAIVRGNEGVFIMGKTIEFHMGGNMELKAENSIILNGSVMVSTTRLPSSSSGDQLGSGDMVRYKLCMCADGTLFKVQVTSQNMGCQISDNPCGNTH [W282M]	-0.29
MAAAAAAAAEQQSSNGPVKKSMREKAVERRSVNKEHNSNFKAGYIPIDEDRLHKTGLRGRKGNLAICVIILLFILAVINLIITLVIWAVIRIGPNGCDSMEFHESGLLRFKQVSDMGVIHPLYKSTVGGRRNENLVITGNNQPIVFQQGTTKLSVENNKTSITSDIGMQFFDPRTQNILFSTDYETHEFHLPSGVKSLNVQKASTERITSNATSDLNIKVDGRAIVRGNEGVFIMGKTIEFHMGGNMELKAENSIILNGSVMVSTTRLPSSSSGDQLGSGDKVRYKLCMCADGTLFKVQVTSQNMGCQISDNPCGNTH [W282K]	-0.08
MAAAAAAAAEQQSSNGPVKKSMREKAVERRSVNKEHNSNFKAGYIPIDEDRLHKTGLRGRKGNLAICVIILLFILAVINLIITLVIWAVIRIGPNGCDSMEFHESGLLRFKQVSDMGVIHPLYKSTVGGRRNENLVITGNNQPIVFQQGTTKLSVENNKTSITSDIGMQFFDPRTQNILFSTDYETHEFHLPSGVKSLNVQKASTERITSNATSDLNIKVDGRAIVRGNEGVFIMGKTIEFHMGGNMELKAENSIILNGSVMVSTTRLPSSSSGDQLGSGDNVRYKLCMCADGTLFKVQVTSQNMGCQISDNPCGNTH [W282N]	0.08
MAAAAAAAAEQQSSNGPVKKSMREKAVERRSVNKEHNSNFKAGYIPIDEDRLHKTGLRGRKGNLAICVIILLFILAVINLIITLVIWAVIRIGPNGCDSMEFHESGLLRFKQVSDMGVIHPLYKSTVGGRRNENLVITGNNQPIVFQQGTTKLSVENNKTSITSDIGMQFFDPRTQNILFSTDYETHEFHLPSGVKSLNVQKASTERITSNATSDLNIKVDGRAIVRGNEGVFIMGKTIEFHMGGNMELKAENSIILNGSVMVSTTRLPSSSSGDQLGSGDGVRYKLCMCADGTLFKVQVTSQNMGCQISDNPCGNTH [W282G]	0.21
MAAAAAAAAEQQSSNGPVKKSMREKAVERRSVNKEHNSNFKAGYIPIDEDRLHKTGLRGRKGNLAICVIILLFILAVINLIITLVIWAVIRIGPNGCDSMEFHESGLLRFKQVSDMGVIHPLYKSTVGGRRNENLVITGNNQPIVFQQGTTKLSVENNKTSITSDIGMQFFDPRTQNILFSTDYETHEFHLPSGVKSLNVQKASTERITSNATSDLNIKVDGRAIVRGNEGVFIMGKTIEFHMGGNMELKAENSIILNGSVMVSTTRLPSSSSGDQLGSGDLVRYKLCMCADGTLFKVQVTSQNMGCQISDNPCGNTH [W282L]	0.08
MAAAAAAAAEQQSSNGPVKKSMREKAVERRSVNKEHNSNFKAGYIPIDEDRLHKTGLRGRKGNLAICVIILLFILAVINLIITLVIWAVIRIGPNGCDSMEFHESGLLRFKQVSDMGVIHPLYKSTVGGRRNENLVITGNNQPIVFQQGTTKLSVENNKTSITSDIGMQFFDPRTQNILFSTDYETHEFHLPSGVKSLNVQKASTERITSNATSDLNIKVDGRAIVRGNEGVFIMGKTIEFHMGGNMELKAENSIILNGSVMVSTTRLPSSSSGDQLGSGDEVRYKLCMCADGTLFKVQVTSQNMGCQISDNPCGNTH [W282E]	-0.07
MAAAAAAAAEQQSSNGPVKKSMREKAVERRSVNKEHNSNFKAGYIPIDEDRLHKTGLRGRKGNLAICVIILLFILAVINLIITLVIWAVIRIGPNGCDSMEFHESGLLRFKQVSDMGVIHPLYKSTVGGRRNENLVITGNNQPIVFQQGTTKLSVENNKTSITSDIGMQFFDPRTQNILFSTDYETHEFHLPSGVKSLNVQKASTERITSNATSDLNIKVDGRAIVRGNEGVFIMGKTIEFHMGGNMELKAENSIILNGSVMVSTTRLPSSSSGDQLGSGDCVRYKLCMCADGTLFKVQVTSQNMGCQISDNPCGNTH [W282C]	-0.37
MAAAAAAAAEQQSSNGPVKKSMREKAVERRSVNKEHNSNFKAGYIPIDEDRLHKTGLRGRKGNLAICVIILLFILAVINLIITLVIWAVIRIGPNGCDSMEFHESGLLRFKQVSDMGVIHPLYKSTVGGRRNENLVITGNNQPIVFQQGTTKLSVENNKTSITSDIGMQFFDPRTQNILFSTDYETHEFHLPSGVKSLNVQKASTERITSNATSDLNIKVDGRAIVRGNEGVFIMGKTIEFHMGGNMELKAENSIILNGSVMVSTTRLPSSSSGDQLGSGVWVRYKLCMCADGTLFKVQVTSQNMGCQISDNPCGNTH [D281V]	-0.16
MAAAAAAAAEQQSSNGPVKKSMREKAVERRSVNKEHNSNFKAGYIPIDEDRLHKTGLRGRKGNLAICVIILLFILAVINLIITLVIWAVIRIGPNGCDSMEFHESGLLRFKQVSDMGVIHPLYKSTVGGRRNENLVITGNNQPIVFQQGTTKLSVENNKTSITSDIGMQFFDPRTQNILFSTDYETHEFHLPSGVKSLNVQKASTERITSNATSDLNIKVDGRAIVRGNEGVFIMGKTIEFHMGGNMELKAENSIILNGSVMVSTTRLPSSSSGDQLGSGSWVRYKLCMCADGTLFKVQVTSQNMGCQISDNPCGNTH [D281S]	-0.22
MAAAAAAAAEQQSSNGPVKKSMREKAVERRSVNKEHNSNFKAGYIPIDEDRLHKTGLRGRKGNLAICVIILLFILAVINLIITLVIWAVIRIGPNGCDSMEFHESGLLRFKQVSDMGVIHPLYKSTVGGRRNENLVITGNNQPIVFQQGTTKLSVENNKTSITSDIGMQFFDPRTQNILFSTDYETHEFHLPSGVKSLNVQKASTERITSNATSDLNIKVDGRAIVRGNEGVFIMGKTIEFHMGGNMELKAENSIILNGSVMVSTTRLPSSSSGDQLGSGTWVRYKLCMCADGTLFKVQVTSQNMGCQISDNPCGNTH [D281T]	-0.28
MAAAAAAAAEQQSSNGPVKKSMREKAVERRSVNKEHNSNFKAGYIPIDEDRLHKTGLRGRKGNLAICVIILLFILAVINLIITLVIWAVIRIGPNGCDSMEFHESGLLRFKQVSDMGVIHPLYKSTVGGRRNENLVITGNNQPIVFQQGTTKLSVENNKTSITSDIGMQFFDPRTQNILFSTDYETHEFHLPSGVKSLNVQKASTERITSNATSDLNIKVDGRAIVRGNEGVFIMGKTIEFHMGGNMELKAENSIILNGSVMVSTTRLPSSSSGDQLGSGYWVRYKLCMCADGTLFKVQVTSQNMGCQISDNPCGNTH [D281Y]	0.16
MAAAAAAAAEQQSSNGPVKKSMREKAVERRSVNKEHNSNFKAGYIPIDEDRLHKTGLRGRKGNLAICVIILLFILAVINLIITLVIWAVIRIGPNGCDSMEFHESGLLRFKQVSDMGVIHPLYKSTVGGRRNENLVITGNNQPIVFQQGTTKLSVENNKTSITSDIGMQFFDPRTQNILFSTDYETHEFHLPSGVKSLNVQKASTERITSNATSDLNIKVDGRAIVRGNEGVFIMGKTIEFHMGGNMELKAENSIILNGSVMVSTTRLPSSSSGDQLGSGRWVRYKLCMCADGTLFKVQVTSQNMGCQISDNPCGNTH [D281R]	-0.24
MAAAAAAAAEQQSSNGPVKKSMREKAVERRSVNKEHNSNFKAGYIPIDEDRLHKTGLRGRKGNLAICVIILLFILAVINLIITLVIWAVIRIGPNGCDSMEFHESGLLRFKQVSDMGVIHPLYKSTVGGRRNENLVITGNNQPIVFQQGTTKLSVENNKTSITSDIGMQFFDPRTQNILFSTDYETHEFHLPSGVKSLNVQKASTERITSNATSDLNIKVDGRAIVRGNEGVFIMGKTIEFHMGGNMELKAENSIILNGSVMVSTTRLPSSSSGDQLGSGWWVRYKLCMCADGTLFKVQVTSQNMGCQISDNPCGNTH [D281W]	-1.51
